Results as given in patent publication US20160280799A1 (Ablynx, published 2016).

T1: active catalytic domain of MMP 7 (UniProt P09237 95-267)
T1 construct: domain: catalytic domain
T1 sequence (looked up): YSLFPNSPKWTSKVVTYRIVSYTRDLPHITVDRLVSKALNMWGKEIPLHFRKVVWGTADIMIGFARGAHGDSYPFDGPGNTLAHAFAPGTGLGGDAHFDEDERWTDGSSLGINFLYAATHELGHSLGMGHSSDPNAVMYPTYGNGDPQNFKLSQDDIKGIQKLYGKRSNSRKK

T2: active catalytic domain of MMP 1 (UniProt P03956 100-269)
T2 construct: domain: catalytic domain
T2 sequence (looked up): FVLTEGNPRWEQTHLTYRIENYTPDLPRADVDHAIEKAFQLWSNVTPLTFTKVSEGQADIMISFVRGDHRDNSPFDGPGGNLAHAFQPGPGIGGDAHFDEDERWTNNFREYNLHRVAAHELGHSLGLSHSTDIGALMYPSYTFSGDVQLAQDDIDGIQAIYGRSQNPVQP

B1: VHH#3E-His tag (VHH)
VHH: QVQLQESGGGLVQPGGSLRLSCAASGRTFSDHSGYTYTIGWFRQAPKEREFVARIYWSSGNTYYADSVKGRFAISRDIAKNTVDLTMNNLEPEDTAVYYCAARDGIPTSRSVESYNYWGQGTQVTVSS
notes: also called TNF3E; VHH TNF3E
B2: MMP-12 P1-44 (VHH)
VHH: QVQLQESGGGLVQPGGSLRLSCAASGFTFNNHWLYWVRQAQGKGLEWVSAINPGGSTVYLDSVKGRFTISRGNTKNTLYLQMNSLKSEDTAVYYCTKAMAWATDWDEYDLWGQGTQVTVSS
B3: MMP-12 P5-29 (VHH)
VHH: QVQLQESGGGLVQAGGSLRLSCAASGRTFTVYTTGWFRQAPGKEREFVAAIDWSGSSTYYTDSVKGRFTISRDNTKNTVYLQMNSLKPEDTAVYYCAARDAIVGVTDTSGYRYWGQGTQVTVSS
notes: also called clone P5-29
B4: EGFR-4.21 (VHH)
VHH: EVQLVESGGGLVQAGGSLRLSCAVSGRTFSSMGWFRQAPGKEREFVATINLSGDRTDYADSVKGRFTISRDNPKNTVYLQMDSLEPEDSAVYYCAGTSLYPSNLRYYTLPGTYADWGQGTQVTVSS
B5: MMP-12 P1-1 (VHH)
VHH: QVQLQESGGGLVQPGGSLRLSCVASGFTFSDYPMAWVRQAPGKGLEWISVINSGGVNTSYAASVKGRFTISRDNAKNTLFLQMNSLKPEDTAVYYCAKYSLKNEQYWRGQGTQVTVSS
B6: EGFR-B11 (VHH)
VHH: QVQLQDSGGGLVQAGGSLRLSCAASRFSSAQYAIGWFRQAPGKEREGVSYITFSGGPTGYADSVKGRFTVSRDNAKNTVYLQMNSLKPEDTAVYYCAARPYTRPGSMWVSSLYDNWGQGTQVTVSS
B7: MMP-12 P1-26 (VHH)
VHH: QVQLQESGGGLVRAGGSLRLSCVASGRTLSKYRMGWFRQFPGKERELVAEIEWKSSSTWYRDSVKGRFTISRDNAKNTVYLRMNSLKPEDTAVYYCAAATLGEPLVKYTYWGQGTQVTVSS
B8: EGFR-IIIa5 (VHH)
VHH: EVQLVESGGGLVQAGGSLRLSCTASGRTFSSYAMGWFRQTPGKEREFVAAITSSGGSTYYADSVKGRFTISRDNAKSTMYLQMDSLMLDDTSVYYCAADSSRPQYSDSALRRILSLSNSYPYWGQGTQVTVSS
B9: EGFR-F11 (VHH)
VHH: QVQLQESGGRLVQAGGSLRLSCAASEHTFRGYAIGWFRQAPGKEREFVSSITYDGTLTNYADSVTGRFTISRDNAKNTVYLQMNSLKPEDTAVYVCAAGYSYRYTTLNQYDSWGQGTQVTVSS
B10: EGFR-1.38 (VHH)
VHH: QVQLQDSGGGLVQAGDSLRLSCAASGRSFGGYAMGWFRQAPGKEREFVAAISWSGGSTYYADSLKGRFTISRDNAKNTVYLQMNSLKPEDTALYYCAAGLRPSPNYNHERSYDYWGQGTQVTVSS
B11: MMP-12 P1-41 (VHH)
VHH: QVQLQDSGGGLVRTGDSLRLSCVVFGGTISTYAMGWFRRAPGKEREFVAAIDASGGFTEYADSVRGRFRIARDNPLSAVYLQMNSLKPEDTAFYYCAADKDRDTVVRFTTTPNEYDYWGQGTQVTVSS

Experiments:
human TNF-alpha [1] = target: T3, human TNF-alpha (human, UniProt P01375 77-233); experiment: ELISA: biotinylated TNFα captured on neutravidin, detection R42; sample treated with pepsin for 60 min at pH 4
T3 construct: also called TNFα; biotinylated TNF-alpha

human TNF-alpha [2] = target: T3, human TNF-alpha; experiment: ELISA: biotinylated TNFα captured on neutravidin, detection R42; sample treated with pepsin for 60 min at pH 2
human TNF-alpha [3] = target: T3, human TNF-alpha; experiment: ELISA: biotinylated TNFα captured on neutravidin, detection R42
human TNF-alpha [4] = target: T3, human TNF-alpha; experiment: ELISA: biotinylated TNFα captured on neutravidin, detection R42; sample treated with pepsin for 60 min at pH 3
[5] = target: T4, human MMP-12 catalytic domain (human, UniProt P39900 106-263); experiment: dot blot: periplasmic extract on 50 ng human MMP-12 catalytic domain on PVDF membrane, anti-c-myc detection
T4 construct: domain: catalytic domain; also called recombinant human catalytic domain of MMP12; human macrophage elastase

[6] = target: T1, active catalytic domain of MMP 7; experiment: dot blot: periplasmic extract on 50 ng catalytic domain immobilized on Hybond C-extra, anti-c-myc detection
[7] = target: T5, active catalytic domain of MMP 2 (UniProt P08253 110-450); experiment: as above
T5 construct: domain: catalytic domain

[8] = target: T6, active catalytic domain of MMP 9 (UniProt P14780 107-444); experiment: as above
T6 construct: domain: catalytic domain

[9] = target: active catalytic domain of MMP 13 (UniProt P45452 104-274); experiment: as above
[10] = target: T2, active catalytic domain of MMP 1; experiment: as above
[11] = target: T7, active catalytic domain of MMP 3 (UniProt P08254 100-272); experiment: as above
T7 construct: domain: catalytic domain

[12] = target: T4, human MMP-12 catalytic domain; experiment: binding implied by inhibition in the colorimetric MMP-12 assay; selected on active MMP-12 on nitrocellulose
[13] = target: T8, human EGFR on cells (Her-14 mouse fibroblasts expressing human EGFR; A431 cells) (human, UniProt P00533 25-1210); experiment: phage ELISA on Her-14 cells (mouse fibroblasts expressing human EGFR) against parental 3T3 cells, about 10^9 phage particles, anti-M13 gpVIII-HRP, OD 405nm
T8 construct: whole, on cells; also called EGF receptor

T4 sequence (P39900 106-263 limits assumed): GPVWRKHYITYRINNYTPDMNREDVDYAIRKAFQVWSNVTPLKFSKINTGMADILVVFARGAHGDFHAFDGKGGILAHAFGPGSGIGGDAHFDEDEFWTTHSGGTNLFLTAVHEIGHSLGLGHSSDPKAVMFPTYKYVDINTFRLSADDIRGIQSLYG
T6 sequence (P14780 107-444 limits assumed): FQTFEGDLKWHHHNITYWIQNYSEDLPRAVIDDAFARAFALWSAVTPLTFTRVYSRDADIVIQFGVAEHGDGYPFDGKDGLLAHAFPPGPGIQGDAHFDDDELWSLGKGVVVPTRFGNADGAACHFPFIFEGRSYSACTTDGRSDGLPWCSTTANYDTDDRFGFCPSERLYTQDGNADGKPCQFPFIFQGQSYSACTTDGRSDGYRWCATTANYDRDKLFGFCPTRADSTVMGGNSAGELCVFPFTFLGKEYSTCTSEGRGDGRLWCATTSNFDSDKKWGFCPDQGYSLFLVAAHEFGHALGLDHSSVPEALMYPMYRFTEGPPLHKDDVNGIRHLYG
T3 sequence (P01375 77-233 limits assumed): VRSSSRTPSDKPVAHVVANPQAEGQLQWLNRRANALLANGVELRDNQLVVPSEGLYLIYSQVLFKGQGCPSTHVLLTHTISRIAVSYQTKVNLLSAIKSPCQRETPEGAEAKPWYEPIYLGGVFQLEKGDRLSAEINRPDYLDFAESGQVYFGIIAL
T7 sequence (P08254 100-272 limits assumed): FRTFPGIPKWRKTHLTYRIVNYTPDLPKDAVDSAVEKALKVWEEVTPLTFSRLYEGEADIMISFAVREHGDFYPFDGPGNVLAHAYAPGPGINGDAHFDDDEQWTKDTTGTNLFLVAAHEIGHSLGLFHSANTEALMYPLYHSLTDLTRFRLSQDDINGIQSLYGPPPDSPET
T5 sequence (P08253 110-450 limits assumed): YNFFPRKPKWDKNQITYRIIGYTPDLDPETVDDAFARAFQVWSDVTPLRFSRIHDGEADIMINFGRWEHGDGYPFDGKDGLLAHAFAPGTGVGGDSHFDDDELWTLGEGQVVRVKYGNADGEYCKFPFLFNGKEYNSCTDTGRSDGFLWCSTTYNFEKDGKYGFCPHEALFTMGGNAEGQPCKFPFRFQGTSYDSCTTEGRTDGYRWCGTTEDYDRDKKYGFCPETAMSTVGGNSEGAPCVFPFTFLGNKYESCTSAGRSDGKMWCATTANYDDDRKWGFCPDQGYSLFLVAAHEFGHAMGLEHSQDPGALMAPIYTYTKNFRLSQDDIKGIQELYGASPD

Binder | binding result [5] | binding result [6] | binding result [7] | binding result [8] | binding result [9] | binding result [10] | binding result [11] | binding result [13] | further results
B1 | – | – | – | – | – | – | – | – | EC50 (read off the curve) (human TNF-alpha [1]): ~0.009 µg/mL; EC50 (read off the curve) (human TNF-alpha [2]): ~0.03 µg/mL; EC50 (read off the curve) (human TNF-alpha [3]): ~0.02 µg/mL; EC50 (read off the curve) (human TNF-alpha [4]): ~0.01 µg/mL
B2 | binds | no binding | no binding | no binding | no binding | no binding | no binding | – | –
B3 | – | – | – | – | – | – | – | – | binding result [12]: binds
B4 | – | – | – | – | – | – | – | binds | –
B5 | binds | no binding | no binding | no binding | no binding | no binding | no binding | – | –
B6 | – | – | – | – | – | – | – | binds | –
B7 | binds | no binding | no binding | no binding | no binding | no binding | no binding | – | –
B8 | – | – | – | – | – | – | – | binds | –
B9 | – | – | – | – | – | – | – | binds | –
B10 | – | – | – | – | – | – | – | binds | –
B11 | binds | no binding | no binding | no binding | no binding | no binding | no binding | – | –
